From patent US20040209330A1 (ZymoGenetics, published 2004)
Several values for one entry are separate records, joined by “and”; a condition that tells them apart may be missing. Equal values may be shown once.

Target: T1, CRF2-4/IL-22RA heterodimeric receptor on BaF3/CRF2-4/IL-22RA cells (human, UniProt Q08334 20-325, limits assumed)
T1 sequence 1: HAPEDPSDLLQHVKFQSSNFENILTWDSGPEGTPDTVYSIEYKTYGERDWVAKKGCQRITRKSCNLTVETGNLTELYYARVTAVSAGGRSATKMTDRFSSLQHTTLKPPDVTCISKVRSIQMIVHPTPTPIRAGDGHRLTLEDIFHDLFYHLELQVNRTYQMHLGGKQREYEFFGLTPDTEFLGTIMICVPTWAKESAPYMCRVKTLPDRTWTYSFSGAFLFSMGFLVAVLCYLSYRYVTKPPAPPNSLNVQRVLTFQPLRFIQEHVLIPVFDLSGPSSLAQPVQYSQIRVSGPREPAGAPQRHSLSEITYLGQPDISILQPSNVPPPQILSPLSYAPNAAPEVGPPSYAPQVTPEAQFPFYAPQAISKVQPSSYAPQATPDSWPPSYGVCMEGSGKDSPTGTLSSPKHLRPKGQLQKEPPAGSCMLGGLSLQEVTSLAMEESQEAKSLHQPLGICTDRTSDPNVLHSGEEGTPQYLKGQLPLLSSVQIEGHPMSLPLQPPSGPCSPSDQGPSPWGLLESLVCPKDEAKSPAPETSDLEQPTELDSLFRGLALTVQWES
T1 sequence 2: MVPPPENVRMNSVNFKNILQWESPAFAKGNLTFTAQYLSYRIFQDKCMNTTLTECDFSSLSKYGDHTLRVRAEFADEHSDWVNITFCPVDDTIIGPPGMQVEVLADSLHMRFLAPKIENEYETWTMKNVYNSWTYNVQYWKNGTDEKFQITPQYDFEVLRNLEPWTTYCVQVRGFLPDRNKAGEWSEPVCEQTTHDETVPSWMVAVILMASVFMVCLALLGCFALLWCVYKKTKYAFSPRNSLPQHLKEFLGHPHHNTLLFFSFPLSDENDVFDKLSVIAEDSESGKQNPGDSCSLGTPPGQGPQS
Test: cell-based or functional assay

B1: IL-22-CEE (human IL-22 polypeptide with C-terminal GluGlu (EE) tag, purified from BHK 570 cells) (ligand)
chain: LLLALLVQGGAAAPISSHCRLDKSNFQQPYITNRTFMLAKEASLADNNTDVRLIGEKLFHGVSMSERCYLMKQVLNFTLEEVLFPQSDRFQPYMQEVVPFLARLSNRLSTCHIEGDDLHIQRNVQKLKDTVKKLGESGEIKAIGELEYMPME
For B1, the “proliferation of BaF3/CRF2-4/IL-22RA cells (Alamar Blue)” value was ~15 fold over background and 2 fold induction.
